# From the nanobody polyreactivity screen of Harvey et al. (2022)
# Assay: yeast display, Sf9 membrane polyspecificity reagent, FACS + sequencing; frameworks hold sequencing errors
# In short: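 In a synthetic yeast display library (Saccharomyces cerevisiae BJ5465), nanobody expression was induced with galactose for 36–48 hours. FACS gates were set low and high (top ~1%) using anti-HA fluorescence for expression and streptavidin fluorescence for binding of the Sf9 membrane reagent. Each polyreactivity label is drawn from the gate of origin.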
row,Sequence,polyreactivity (PSR sort gate)
1,QVQLVESGGGLVQAGGSLRLSCAASGFIFPQYAKGWYRQAPGKERELVAAISTGGGSTYYADSVKGRFTISRDNAKNTVYLQMNSLKPEDTAVYYCNARPKYDSGHYYWGQGTQVTVSS,high polyreactivity
2,QVQLVESGGGLVQAGGSLRLRCAASGRIFNNYAMGWYRPAPGKERELVAAISGSGGSTYYADSVKGRFTISRDNAKNNVYLQMNSLKPEDTAVYYCSTSGPHYFSRNFDYWGQGTQVTVSS,low polyreactivity
3,QVQLVESGGGLVQAGGSLRLSCAASGIIFYRYAMGWYRQAPGKERELVATIRRSDGSTYYADSVKGRFTISRDNAKNTVYLQMKSLKPVDTAVYYCAARRPYSSGYDYWGQGSQVTVSS,high polyreactivity
4,QVQLVESGGGLVQAGGSLRLSCAASGSIFQWYAMGWYRQAPGKERELVAAISFNGGITYYADSVKGRFTISRDIAKNTVYLQMNSLKPEDTAVYYCATLPGWGYAAYEYWGQGTQVTVSS,low polyreactivity
5,QVQLVESGGGLFQAGGSLRLSCAASGFTFGIYAMGWYRQAPGKERELVAAITKRGGITSYADSVKGRFTISRDNAKNTVYLQMNSLKPEDTAVYYCAKIGGFLSYWSGDYWGQGTQVTVSS,low polyreactivity
6,QVQLVESGGGLVQAGGSLRLSCSASGIIFSEYAMVWYRQAPGKERELVAAISKSSGSTRYADSVKGRFTISRDNAKNTVYLQMNSLKPEVTAVYYCAAVYRGVVVYGYWGQGTQVTVSS,high polyreactivity
7,QVQLVESGGGLVQAGGSLRLSCAASGITFYWYAMGWYRQAPGKERELVASITGNGGGTSYADSVKGRFTISRDNAKNTVYLQMNSLKPEDTAVYYCNTSVGGKEYDSWGQGTQVTVSS,low polyreactivity
8,QVQLVESGGGLVQAGGSLRLSCAAYGSTFSRYAMGWYRQAPGKERELVAAISWGGNTYYADSVKGRFTISRDNAKNTVYLQMNSLKPEDTAVYYCASVGGRFFAPYIWSVDSYDYWGQGTQVTVSS,high polyreactivity
9,QVQLVESGGGLVQAGGILRLSCAASGSIFWYYARGWYRQARGKEREFVADITFSGGSTYYADSVNGRFTISRDNAKNTVYIQMNSLKPEDTAVYYCARDREPLTPVLGNYWGQGTQVTVSS,low polyreactivity
10,QVQLVESGGGLVKAGGSLRLSCAASGSTFYNYAMGWYRQAPGKERELVAAISTRGGSTYYADSVKGRFTISRDNAKNTVYLQMNSLKPEDTAVYYCAADGRGGHDDYWGQGTQVTVSS,high polyreactivity
11,QLQLVESGGGLVQAGGSLRLSCAASGRTFQLYAMGWYRQAPGKERELVAAISYSGGSTYYADSVKGRFTISRDNAKNSVYLQTNSLKPEDTAVYYCAARPRSTRPSYYYRSAGYYWGQGTQVTLSS,high polyreactivity
12,QVQLVESGGGLVQAGGSLRLSCAASGFTFGFYAMGWYRQAPGKERELVATINYNGGSTYYADSVKGRFTISRDNAKNTVYLEMNSLKPEDTAVYYCATDYGWAPSYWYDSCGQGTQVTVSS,low polyreactivity
13,QVQLQESGRRPGAAGGSPRMSCAASGNIFWVAVMGRYRQAPGKERELVASIGFGCTTYYADSVKCRFTISRDNAKKTVYLQMISLKPEDTAVYYCAAPNYDWGELDYWGQGTQVPVSS,low polyreactivity
14,QVQLEESGGGLVQAGGSLRLSCAASGSILVKYAMGRYRQAPGKERELVASITSTGNTYYADSVKGRFTISRDNAKNTVYLQMNSLKPEDTAVYYCAADAAFTYVYFQSDGYNYWGQGTQVTVSS,low polyreactivity
15,QVQLVESGGGLVQAGGSLRLSCAASGRIFRWYAMGWYRQAPGKERELVAAITRSGSTTYYADSVKGRFTISRDNAKNAVYLQMNSLKPEDTAVSYSAAGYRGGYGWSVRMDYWGQGTQVTVSS,high polyreactivity
16,QVQLVESGGGLVQAGGSLRLSCAASGSTLSANAMGWYRQAPGKERELVAAISWNGGSTYYADSVKGRFTISRDNAKNTVYLQMNSLKPEDTAVYYCAAEYIVTYEYWYFGYDYWGQGTQVTVSS,low polyreactivity
17,QVQLVESGGGLVQAGGSLRLSCAASGSTLYSYAMGWYRQAPGKERELVAAISIGDSTNYADSVKGRFTISRDNAKNTVYLQMNSLKPVDTAVYYCAADWDESYSYRRYRHYDYWGQGTQVSVSS,low polyreactivity
18,QVQLVESGGGLVQAGGSLRLSCAASGRTFYVNAMGGYRQAPGKERELVARITSGGSTYYADSVKGRFTISRDNAKNTVYLQMNSLKPEDTAVYYCAKKYIGYQEWIHSTRRYDYWGQGTQVTGSS,low polyreactivity
19,QVQLVESGGGLVQAGGSLRLSCAASGRTFGVNMGWYRQAPGKERELVAGITSGGSTYYADSVKGRFTISRDNAKNTVYLQMNSLKPEDTAVFYCAKSYRGKWSPYYYWGQGTQVTVSS,high polyreactivity
20,QVQLVESGGGLVQAGGSLRLSCAASGISFERNGMGWYRQATGKERELVAAIRSGGSTYYADSVKGRFTISRDNAKNRVYVQMHSLKPEETAVYYCAAVTQGGYTDLGDYWGQGTQVTVSS,low polyreactivity
21,QVQLVESGGGLVQAVGSLRLSCAACGRILWYYTMGWYRQAPAKERELVAAISGRGSSTYYADSVKGRFTISRDNAKNTVYLQMNSLKPEDTAVYYCNAALRTRRGDYDYWGQGTQVTVSS,high polyreactivity

row,Sequence,polyreactivity (PSR sort gate)
1,QFQLVESGRGLVQAGGGLRLSCAASGLTFGYYTMGWYRQAPGKERELVAAINYSGGSTYYADSVKGRFTISRDNAKNTVYLQMNCLKPEDSAVYYCAAEGPVYTTYEYWGQGNQVTVSS,low polyreactivity
2,QVQLVESGGGLVQAGGSLRLSCAASGFIFYRYAMGWYRQEPGKERELVASINYSGGRTYYADSVKGRFTISRDNAKNTVYLQMNSLKPEDTAVYYCNARYKSTYYYWGQGTQVTVSS,high polyreactivity
3,QVQLVDSGGGLVQAGGSLRLSCAASGFIFKYYAMGWYRQEPGKERELVAAITIGGSTNYADSVKGRFTISRDNAKNTVYLQMNSLTPEDTAVYSCAADVQERYHRAWYDYWGQGTQVTVSS,low polyreactivity
4,QVQLEESGGGLVQAGGSLRLSCAASGSTFKTYASGWYRQAPGKERELVAAISWSGGSTYYAESVKGRFTISRDNAKNTVYLQMNSLKPEDTAVYYCNAGWGYPSPWFIGEYWGQGTQVTVSS,low polyreactivity
5,QVQLVESGGGLVQAGRSLRLSCAASGSTFSWNTMGWYRPAPGIERELVAAINSGGSTYYADSVKGRFTISRDNAKNTVYLQMNSLKPEDTAFYYCAARTKYYGRFDYWGQGTQVTVCS,low polyreactivity
6,QVQLVESGGGLVQAGGSLRLSCAASGITLVRYAMGWYRQAPGKERELVAAISSSGGSTYYADSVKGRFTISRDTAKNTVYLQMNSLKPEDTAVYYCNAYVHSRRVEFNYWGQGTQVTVSS,high polyreactivity
7,QVQLVESGGGLVQAGGSLRLSCAASGRTSRQYAMGWYRQAPGKEREFVAAITWSDSGTYYADSVKGRFTISRDNAKNTVYLQMNSLKPEDTAVYYCAAERYLSFDRYLYEYYYWGQGTQVTVSS,low polyreactivity
8,QVQLVESGGGLVQAGGSLRLSCAPSGRILWFYAMGWYRQAPGKERELVAAISSSSGRTYYADSVKGRFTISRDNAKNTVYLQMYILKPEDSAVYYCAATHAVARPLEYDYWGQGTHVTVSS,low polyreactivity
9,QVQLVESGGGLVQAGGSLRLSCAASGITFTFYAMGWYRQAPGKERELVATIDSGGSTNYADSVKGRFTISRDNAKNTVYLQMNSLKPEDTEVYYCAADGVWYYYDMDYWGQGTQVTVSS,low polyreactivity
10,QVQLVESGGGLVQAGGSLRLSCAASGFTFGRNAIVWYRQAPGKERELVASIDWSGGSTYYADSVKGRFTISRDNAKNTVYLQMNSLKPEDTAVYYCAVGPNSVGNRSYGFDYWGQGTQVTVSS,low polyreactivity
11,QVQLEESGGCLVQEGGSLRLSCAASGIIFTSNTLGWYRQAPGKEREFVASINWNGSSTYADSVKGRFTISRDNAKNTVYLQMNSLKPEDTAVYYCNADYNRNSVQFSLYDYWGQGTQVTVSS,low polyreactivity
12,QVQLVESGGGLVQAGGSLRLSCAASGSTFKSYTMGWYRQAPGKERELVAAITSSGRTNYADSVKGRFTISRDNAKNTVYLQMNSLKPEDTAVYYCAARWYYYPLLYDYWGQGTQVTVSS,low polyreactivity
13,QVQLVESGGGLVQAGGSLRLICAASGRTFGKYAMGWYRQAPGKEMQLVAAITRRGGSTFYADSVKGRFRISRDNAKNTVYLQMNSLKPEDTAVYYCAARSTVGPQYGVRFNYWGQGTQVTVSS,high polyreactivity
14,QVQLVESGGGLVQAGGSLRLSCAASGRIFSVYALGWYRQAPGKERELVAAISSGDSTYYADSVKGRFTISRDNAKNTVYLQMNSLKPDDTAVFYCAATFPFHDGDYWGQGTQVTVSS,low polyreactivity
15,QVQLVESGGGLVQAGGRLRLSCAASGGIFGSYAMGWYRQAPGKERELVADITQSGGRTRYADSVKGRFTISRDNAKNTVYLQMNSLKPEDTAVYYCNAQDVDSGDDYDYWGQGTQVTVSS,low polyreactivity
16,QVQLVESGGGLVQAGGSLRISCAASGRTLFNKARGRYRQAPGKERELVAAINWSGTSTYYADSVKGRFTISRDNAKNTVYLQMNSLKPEDTAVYYCAARYSTVSTRRKPYNYWGQGTQVTVSS,high polyreactivity
17,QVHLLESGGGLLQAGGSLRLNSDASGSTFITYCIGWFRQAPGKERELVARITLSGGSTYYADSVKGRFTSSRDNAKNTVYLQMNRLKPEDTAVYYCATDFGWQYYVLDGYYWGQGTQVTVSS,low polyreactivity
18,QVQLVESGGGLVQAGGSLRLSCAASGSIFYGYAMGWYRQAPGKERELVASISKRGGSTYYADSVKGRFTISRDNAKNTVYLQMNSLKPEDTAVYYCAAEGVVYREYNYWGQGTQVTVSS,high polyreactivity
19,QVHLVESGGGLVQAGGSLRLSCAASGFTILTYGMGWYRQAPGKERELVAAIRWSGGRTYYADSVKGRFTISRDNAKNTVYLQMNSLKPEDTAVYYCAARYKFSTIRGVDYWGQGTQVTVSS,high polyreactivity
20,QVQLVESGGGLVQAGGSLRLSCAASGRIFYPYAMGWYRQAPGKERELVAAIDWTAGGTYYADSVKGRFTISRDNAKNTVYLQMNSLKPEDTAVYYCAAEYYIEANGDYWGLGTQVTVSS,low polyreactivity
